T1: His-SUMO-FGF23 (N-terminal domain of human FGF23, wild type) (human, UniProt Q9GZV9 25-204)
T1 chain: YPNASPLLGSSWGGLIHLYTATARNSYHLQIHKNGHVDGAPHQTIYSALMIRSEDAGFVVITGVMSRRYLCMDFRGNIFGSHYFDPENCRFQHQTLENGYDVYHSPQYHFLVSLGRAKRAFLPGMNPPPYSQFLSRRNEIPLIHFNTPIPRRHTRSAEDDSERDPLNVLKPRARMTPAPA

B1: Burosumab (wild type) (antibody, V domains shown)
VH: QVQLVQSGAEVKKPGASVKVSCKASGYTFTNHYMHWVRQAPGQGLEWMGIINPISGSTSNAQKFQGRVTMTRDTSTSTVYMELSSLRSEDTAVYYCARDIVDAFDFWGQGTMVTVSS
VL: AIQLTQSPSSLSASVGDRVTITCRASQGISSALVWYQQKPGKAPKLLIYDASSLESGVPSRFSGSGSGTDFTLTISSLQPEDFATYYCQQFNDYFTFGPGTKVDIK
B2: Burosumab VH:V97A (antibody, V domains shown)
VH: QVQLVQSGAEVKKPGASVKVSCKASGYTFTNHYMHWVRQAPGQGLEWMGIINPISGSTSNAQKFQGRVTMTRDTSTSTVYMELSSLRSEDTAVYYCARDIADAFDFWGQGTMVTVSS
VL: AIQLTQSPSSLSASVGDRVTITCRASQGISSALVWYQQKPGKAPKLLIYDASSLESGVPSRFSGSGSGTDFTLTISSLQPEDFATYYCQQFNDYFTFGPGTKVDIK
B3: Burosumab VL:A32S (antibody, V domains shown)
VH: QVQLVQSGAEVKKPGASVKVSCKASGYTFTNHYMHWVRQAPGQGLEWMGIINPISGSTSNAQKFQGRVTMTRDTSTSTVYMELSSLRSEDTAVYYCARDIVDAFDFWGQGTMVTVSS
VL: AIQLTQSPSSLSASVGDRVTITCRASQGISSSLVWYQQKPGKAPKLLIYDASSLESGVPSRFSGSGSGTDFTLTISSLQPEDFATYYCQQFNDYFTFGPGTKVDIK
B4: Burosumab variant with combined VH:V97A and VL:A32S mutations (antibody, V domains shown)
VH: QVQLVQSGAEVKKPGASVKVSCKASGYTFTNHYMHWVRQAPGQGLEWMGIINPISGSTSNAQKFQGRVTMTRDTSTSTVYMELSSLRSEDTAVYYCARDIADAFDFWGQGTMVTVSS
VL: AIQLTQSPSSLSASVGDRVTITCRASQGISSSLVWYQQKPGKAPKLLIYDASSLESGVPSRFSGSGSGTDFTLTISSLQPEDFATYYCQQFNDYFTFGPGTKVDIK

Biological target: T1, His-SUMO-FGF23 (N-terminal domain of …)
Assay: ELISA

Binder | Kd
B1 | 0.77 nM
B2 | 0.65 nM
B3 | 0.48 nM
B4 | 0.21 nM

— article PMC9427789 (2022)
